Consider 91 sequences from the supplement of paper PMC9112550, “Optimization of the antimicrobial peptide Bac7 by deep mutational scanning” (BMC Biology, 2022).

The test system of the data set is Escherichia coli TOP10. The data set is described as follows: shrunken log2 fold change of peptide-encoding DNA abundance (4.5 h post-induction vs induction); higher = less antimicrobial activity (less host growth inhibition). To be noted: time post-induction: 4.5 h; library: site-saturation at positions 5, 18, 19, 20.
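Note: peptides expressed intracellularly from a pBAD plasmid library in pooled LB shake-flask culture, induced with 0.3% L-arabinose, DNA abundance read by NGS, three biological replicates, DESeq2 with apeglm shrinkage.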

On to RRIRPRPPRLPRPRPRPMPAPRP, for which the “shrunken log2 fold change” value stood at 0.0935.
With RRIRKRPPRLPRPRPRPKGFPRP, the “shrunken log2 fold change” value amounted to 0.0233.
With RRIRERPPRLPRPRPRPMNLPRP, the “shrunken log2 fold change” value is -0.0666.
On to RRIRARPPRLPRPRPRPIFCPRP, for which the “shrunken log2 fold change” value amounted to 0.445.
Regarding RRIRGRPPRLPRPRPRPWPYPRP, the “shrunken log2 fold change” value was -0.265.
Consider RRIRMRPPRLPRPRPRPVAQPRP, for which the “shrunken log2 fold change” value amounted to 0.963.
As for RRIRKRPPRLPRPRPRPMLEPRP, the “shrunken log2 fold change” value came out at 0.621.
For RRIRCRPPRLPRPRPRPNAFPRP, the “shrunken log2 fold change” value was 0.0246.
On to RRIRDRPPRLPRPRPRPANIPRP, for which the “shrunken log2 fold change” value is -0.114.
Turning to RRIRHRPPRLPRPRPRPATAPRP, the “shrunken log2 fold change” value was -0.0944.
RRIRERPPRLPRPRPRPLRFPRP: the “shrunken log2 fold change” value stood at 0.493.
Regarding RRIRSRPPRLPRPRPRPFMVPRP, the “shrunken log2 fold change” value was -0.337.
As to RRIRWRPPRLPRPRPRPLNMPRP, the “shrunken log2 fold change” value is -0.832.
Then RRIRCRPPRLPRPRPRPENDPRP, with -0.0268.
For the sequence RRIRHRPPRLPRPRPRPPHQPRP, the “shrunken log2 fold change” value is -0.151.
On to RRIRVRPPRLPRPRPRPQCTPRP, for which the “shrunken log2 fold change” value was -0.149.
Then RRIRTRPPRLPRPRPRPMRKPRP, with 0.375.
RRIRYRPPRLPRPRPRPCHHPRP: the “shrunken log2 fold change” value was -0.12.
Take RRIRMRPPRLPRPRPRPHVGPRP: the “shrunken log2 fold change” value came to 0.105.
As for RRIRCRPPRLPRPRPRPYGDPRP, the “shrunken log2 fold change” value was -0.217.
As for RRIRCRPPRLPRPRPRPANSPRP, the “shrunken log2 fold change” value was -0.685.
With RRIRARPPRLPRPRPRPPITPRP the figure was 0.261; with RRIRRRPPRLPRPRPRPWKKPRP, -0.0288.
For the sequence RRIRARPPRLPRPRPRPCFWPRP, the “shrunken log2 fold change” value turned out to be 0.364.
With RRIRMRPPRLPRPRPRPTIEPRP the figure was 0.43.
As for RRIRWRPPRLPRPRPRPWLLPRP, the “shrunken log2 fold change” value is -0.0799.
Regarding RRIRWRPPRLPRPRPRPEKAPRP, the “shrunken log2 fold change” value was -0.0225.
On to RRIRGRPPRLPRPRPRPQPYPRP, for which the “shrunken log2 fold change” value is -0.0844.
RRIRARPPRLPRPRPRPTVSPRP: the “shrunken log2 fold change” value is 0.136.
RRIRERPPRLPRPRPRPPGCPRP: the “shrunken log2 fold change” value was 0.124.
Then RRIRCRPPRLPRPRPRPKKEPRP, with 0.00726; and RRIRSRPPRLPRPRPRPIMNPRP, with -0.0954; and RRIRVRPPRLPRPRPRPSVFPRP, with -0.126.
In the case of RRIRMRPPRLPRPRPRPTYMPRP, the “shrunken log2 fold change” value is -0.131.
With RRIRRRPPRLPRPRPRPGHGPRP the figure was 1.04; with RRIRCRPPRLPRPRPRPNHSPRP, -0.936; with RRIRCRPPRLPRPRPRPSLSPRP, -0.429.
For RRIRNRPPRLPRPRPRPDDAPRP, the “shrunken log2 fold change” value stood at 0.147.
Take RRIRYRPPRLPRPRPRPQQQPRP: the “shrunken log2 fold change” value is 0.00548.
With RRIRDRPPRLPRPRPRPPFWPRP the figure was 0.185; with RRIRGRPPRLPRPRPRPKHKPRP, 0.448; with RRIRKRPPRLPRPRPRPQRVPRP, 0.146.
As for RRIRGRPPRLPRPRPRPWDAPRP, the “shrunken log2 fold change” value is 0.142.
Take RRIRERPPRLPRPRPRPPGYPRP: the “shrunken log2 fold change” value was -0.175.
Then RRIRKRPPRLPRPRPRPIGLPRP, with 0.0815; and RRIRERPPRLPRPRPRPSDVPRP, with -0.182; and RRIRQRPPRLPRPRPRPTMMPRP, with -0.194.
As for RRIRGRPPRLPRPRPRPLQNPRP, the “shrunken log2 fold change” value is 0.693.
As to RRIRPRPPRLPRPRPRPGDKPRP, the “shrunken log2 fold change” value is -0.307.
In the case of RRIRDRPPRLPRPRPRPPFRPRP, the “shrunken log2 fold change” value came to 0.126.
In the case of RRIRHRPPRLPRPRPRPSTSPRP, the “shrunken log2 fold change” value was -0.478.
RRIRPRPPRLPRPRPRPWRSPRP: the “shrunken log2 fold change” value turned out to be 0.0793.
For RRIRIRPPRLPRPRPRPCDNPRP, the “shrunken log2 fold change” value is -0.178.
For the sequence RRIRFRPPRLPRPRPRPYAQPRP, the “shrunken log2 fold change” value is -0.533.
On to RRIRHRPPRLPRPRPRPIGVPRP, for which the “shrunken log2 fold change” value turned out to be 0.148.
Then RRIRNRPPRLPRPRPRPVFRPRP, with -0.165.
As to RRIRLRPPRLPRPRPRPKWPPRP, the “shrunken log2 fold change” value is 0.279.
As to RRIRERPPRLPRPRPRPFHEPRP, the “shrunken log2 fold change” value was -0.0823.
Consider RRIRVRPPRLPRPRPRPCNWPRP, for which the “shrunken log2 fold change” value was -0.327.
With RRIRMRPPRLPRPRPRPVYEPRP the figure was 0.352; with RRIRKRPPRLPRPRPRPTVRPRP, 0.899.
Take RRIRARPPRLPRPRPRPESPPRP: the “shrunken log2 fold change” value came out at 0.145.
RRIRIRPPRLPRPRPRPWARPRP: the “shrunken log2 fold change” value amounted to 0.0419.
As for RRIRGRPPRLPRPRPRPMKNPRP, the “shrunken log2 fold change” value was determined as 0.68.
Consider RRIRERPPRLPRPRPRPGVFPRP, for which the “shrunken log2 fold change” value was 0.248.
For the sequence RRIRKRPPRLPRPRPRPQAPPRP, the “shrunken log2 fold change” value was 0.537.
Consider RRIRLRPPRLPRPRPRPPSIPRP, for which the “shrunken log2 fold change” value is -0.0597.
For RRIRTRPPRLPRPRPRPVECPRP, the “shrunken log2 fold change” value stood at 0.0216.
As to RRIRCRPPRLPRPRPRPPDGPRP, the “shrunken log2 fold change” value was -0.0323.
With RRIRQRPPRLPRPRPRPVYHPRP the figure was -0.83.
Consider RRIRFRPPRLPRPRPRPFKCPRP, for which the “shrunken log2 fold change” value is -2.13.
For the sequence RRIRCRPPRLPRPRPRPGMAPRP, the “shrunken log2 fold change” value was found to be 0.418.
With RRIRERPPRLPRPRPRPKHIPRP, the “shrunken log2 fold change” value is -0.766.
On to RRIRSRPPRLPRPRPRPYHVPRP, for which the “shrunken log2 fold change” value is -1.09.
Regarding RRIRTRPPRLPRPRPRPLDCPRP, the “shrunken log2 fold change” value is -0.294.
For RRIRRRPPRLPRPRPRPSMAPRP, the “shrunken log2 fold change” value is -0.142.
With RRIRNRPPRLPRPRPRPAFKPRP the figure was -0.0432; with RRIRGRPPRLPRPRPRPMCYPRP, 0.243; with RRIRERPPRLPRPRPRPVNWPRP, -0.0528.
With RRIRNRPPRLPRPRPRPHSQPRP, the “shrunken log2 fold change” value was -0.392.
On to RRIRNRPPRLPRPRPRPRGCPRP, for which the “shrunken log2 fold change” value is 0.366.
For the sequence RRIRNRPPRLPRPRPRPYTRPRP, the “shrunken log2 fold change” value is -0.124.
For RRIRGRPPRLPRPRPRPAAAPRP, the “shrunken log2 fold change” value worked out at 2.36.
With RRIRLRPPRLPRPRPRPRYAPRP, the “shrunken log2 fold change” value was 0.00198.
With RRIRQRPPRLPRPRPRPLVYPRP the figure was -0.737.
With RRIRGRPPRLPRPRPRPCGTPRP the figure was 1.44; with RRIRPRPPRLPRPRPRPERIPRP, 0.152; with RRIRLRPPRLPRPRPRPSAFPRP, -0.181.
For the sequence RRIRHRPPRLPRPRPRPCRNPRP, the “shrunken log2 fold change” value is -0.166.
With RRIRTRPPRLPRPRPRPHHHPRP the figure was -0.924; with RRIRDRPPRLPRPRPRPQNEPRP, -0.24.
